Data from article PMC10897178, “FANCJ DNA helicase is recruited to the replisome by AND-1 to ensure genome stability” (EMBO Reports, 2024).

Assays:
[1] = molecular target: T1, Flag-tagged FANCJ wild type (human, UniProt Q9BX63 1-1249); assay: pull-down; GST-SepB α-helix bundle (0.5 µg) on Glutathione Sepharose 4B beads, purified Flag-FANCJ (0.5 µg) added; 25 mM Tris-HCl pH 7.5, 150 mM NaCl, 0.1% Triton X-100, 4 °C; washes with 300 mM NaCl, 1% Triton X-100; Western blot; details: both partners purified
T1 construct: FANCJ (BRIP1, BACH1) DNA helicase, human, open reading frame; purified as full-length protein; Plasmid from Hisao Masai (Uno et al, 2012); also called FANCJ WT; Flag-FANCJ WT; source: HEK 293T, transiently transfected (pCSII-EF-MCS): in whole-cell extract or nuclear fraction; also purified (anti-Flag M2 agarose, 3x Flag-peptide elution)
T1 sequence (looked up): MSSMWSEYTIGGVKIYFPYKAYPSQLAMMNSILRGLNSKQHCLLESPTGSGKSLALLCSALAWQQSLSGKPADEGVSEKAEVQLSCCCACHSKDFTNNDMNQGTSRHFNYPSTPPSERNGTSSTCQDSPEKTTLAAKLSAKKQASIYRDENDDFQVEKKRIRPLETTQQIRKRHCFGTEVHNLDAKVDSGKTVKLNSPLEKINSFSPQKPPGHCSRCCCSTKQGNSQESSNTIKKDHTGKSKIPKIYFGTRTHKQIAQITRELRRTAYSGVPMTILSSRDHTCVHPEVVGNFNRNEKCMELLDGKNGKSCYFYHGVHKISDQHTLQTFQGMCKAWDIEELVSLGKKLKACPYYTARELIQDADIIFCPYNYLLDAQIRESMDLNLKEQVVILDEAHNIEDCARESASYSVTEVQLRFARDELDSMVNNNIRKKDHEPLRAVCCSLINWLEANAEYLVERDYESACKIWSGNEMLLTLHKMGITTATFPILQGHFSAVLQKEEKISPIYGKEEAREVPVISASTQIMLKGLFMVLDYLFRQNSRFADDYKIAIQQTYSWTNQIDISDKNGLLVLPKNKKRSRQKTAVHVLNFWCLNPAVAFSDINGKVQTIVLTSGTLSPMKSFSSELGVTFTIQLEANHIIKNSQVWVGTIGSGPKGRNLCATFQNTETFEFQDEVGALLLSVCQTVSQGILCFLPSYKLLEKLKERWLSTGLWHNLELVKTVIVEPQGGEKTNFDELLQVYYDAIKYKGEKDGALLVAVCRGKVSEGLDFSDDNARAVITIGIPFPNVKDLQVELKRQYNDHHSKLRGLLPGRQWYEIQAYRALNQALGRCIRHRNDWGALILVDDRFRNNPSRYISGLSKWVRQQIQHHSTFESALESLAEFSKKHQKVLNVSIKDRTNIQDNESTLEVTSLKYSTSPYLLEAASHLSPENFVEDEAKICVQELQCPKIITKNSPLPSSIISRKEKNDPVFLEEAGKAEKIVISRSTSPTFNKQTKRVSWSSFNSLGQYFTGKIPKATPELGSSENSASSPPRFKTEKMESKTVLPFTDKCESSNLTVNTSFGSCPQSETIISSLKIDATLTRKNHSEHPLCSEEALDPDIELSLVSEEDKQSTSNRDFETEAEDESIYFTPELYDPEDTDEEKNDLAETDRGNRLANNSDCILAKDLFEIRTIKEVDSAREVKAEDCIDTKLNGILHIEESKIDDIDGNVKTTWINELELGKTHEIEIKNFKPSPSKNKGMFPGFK

[2] = molecular target: T2, Flag-tagged FANCJ N734H (human, UniProt Q9BX63 1-1249, N734H); assay: as above; details: both partners purified
T2 construct: FANCJ (BRIP1), human, full-length; missense variant found in uterine endometrial carcinoma; source: HEK 293T, transiently transfected, purified (anti-Flag M2 agarose)
T2 sequence (looked up): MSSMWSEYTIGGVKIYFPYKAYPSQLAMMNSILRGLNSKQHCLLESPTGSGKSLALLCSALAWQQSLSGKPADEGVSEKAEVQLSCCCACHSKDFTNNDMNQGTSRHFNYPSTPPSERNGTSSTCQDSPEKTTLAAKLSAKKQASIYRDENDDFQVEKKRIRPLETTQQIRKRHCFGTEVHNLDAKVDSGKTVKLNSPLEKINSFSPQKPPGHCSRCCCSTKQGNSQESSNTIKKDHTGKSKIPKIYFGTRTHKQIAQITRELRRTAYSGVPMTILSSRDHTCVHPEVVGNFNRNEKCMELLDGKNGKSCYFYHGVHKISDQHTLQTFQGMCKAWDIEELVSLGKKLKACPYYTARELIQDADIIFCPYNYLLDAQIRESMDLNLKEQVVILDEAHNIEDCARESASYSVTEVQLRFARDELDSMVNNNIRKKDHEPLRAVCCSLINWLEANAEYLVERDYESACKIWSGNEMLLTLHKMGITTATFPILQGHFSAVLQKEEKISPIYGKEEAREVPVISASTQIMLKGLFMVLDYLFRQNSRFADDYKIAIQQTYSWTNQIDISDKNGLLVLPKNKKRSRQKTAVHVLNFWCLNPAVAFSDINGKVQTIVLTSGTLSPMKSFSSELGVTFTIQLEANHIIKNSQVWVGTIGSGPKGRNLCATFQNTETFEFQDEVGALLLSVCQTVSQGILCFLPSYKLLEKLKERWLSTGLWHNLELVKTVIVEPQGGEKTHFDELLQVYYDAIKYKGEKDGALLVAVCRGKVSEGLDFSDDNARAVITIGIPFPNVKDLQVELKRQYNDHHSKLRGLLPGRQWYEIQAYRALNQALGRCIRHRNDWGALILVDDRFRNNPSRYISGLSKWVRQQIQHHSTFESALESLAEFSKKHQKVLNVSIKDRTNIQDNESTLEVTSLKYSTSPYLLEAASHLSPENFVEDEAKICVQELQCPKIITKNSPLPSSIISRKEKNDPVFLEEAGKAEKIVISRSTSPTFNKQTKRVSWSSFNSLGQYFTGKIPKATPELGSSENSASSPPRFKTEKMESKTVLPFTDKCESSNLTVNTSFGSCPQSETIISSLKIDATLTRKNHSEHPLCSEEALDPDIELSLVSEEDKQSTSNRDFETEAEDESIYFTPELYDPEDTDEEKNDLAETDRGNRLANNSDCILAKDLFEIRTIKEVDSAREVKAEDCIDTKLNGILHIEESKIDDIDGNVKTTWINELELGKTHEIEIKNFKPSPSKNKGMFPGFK

B1: GST-SepB α-helix bundle WT (domain or fragment, human, UniProt O75717 718-824, looked up)
chain: IATEKGQMEEQFWRSVIFHNHLDYLAKNGYEYEESTKNQATKEQQELLMKMLALSCKLEREFRCVELADLMTQNAVNLAIKYASRSRKLILAQKLSELAVEKAAELT
notes: AND-1 (WDHD1), human, α-helix bundle of the SepB domain, amino-acid residues 718-824; Cloned into pGEX-2T; also called GST-SepB α-helix bundle chimeric protein; source: E. coli Rosetta pLysS (DE3), purified (Glutathione Sepharose 4B)
B1: binds [1]; binds [2].
